The labels stand for the following.
T1: VP16-AR containing the residues 37 to 919 (human, UniProt P10275 37-920)
T1 construct: also called pCMX-VP16-AR; full length AR fused to VP16
T1 sequence: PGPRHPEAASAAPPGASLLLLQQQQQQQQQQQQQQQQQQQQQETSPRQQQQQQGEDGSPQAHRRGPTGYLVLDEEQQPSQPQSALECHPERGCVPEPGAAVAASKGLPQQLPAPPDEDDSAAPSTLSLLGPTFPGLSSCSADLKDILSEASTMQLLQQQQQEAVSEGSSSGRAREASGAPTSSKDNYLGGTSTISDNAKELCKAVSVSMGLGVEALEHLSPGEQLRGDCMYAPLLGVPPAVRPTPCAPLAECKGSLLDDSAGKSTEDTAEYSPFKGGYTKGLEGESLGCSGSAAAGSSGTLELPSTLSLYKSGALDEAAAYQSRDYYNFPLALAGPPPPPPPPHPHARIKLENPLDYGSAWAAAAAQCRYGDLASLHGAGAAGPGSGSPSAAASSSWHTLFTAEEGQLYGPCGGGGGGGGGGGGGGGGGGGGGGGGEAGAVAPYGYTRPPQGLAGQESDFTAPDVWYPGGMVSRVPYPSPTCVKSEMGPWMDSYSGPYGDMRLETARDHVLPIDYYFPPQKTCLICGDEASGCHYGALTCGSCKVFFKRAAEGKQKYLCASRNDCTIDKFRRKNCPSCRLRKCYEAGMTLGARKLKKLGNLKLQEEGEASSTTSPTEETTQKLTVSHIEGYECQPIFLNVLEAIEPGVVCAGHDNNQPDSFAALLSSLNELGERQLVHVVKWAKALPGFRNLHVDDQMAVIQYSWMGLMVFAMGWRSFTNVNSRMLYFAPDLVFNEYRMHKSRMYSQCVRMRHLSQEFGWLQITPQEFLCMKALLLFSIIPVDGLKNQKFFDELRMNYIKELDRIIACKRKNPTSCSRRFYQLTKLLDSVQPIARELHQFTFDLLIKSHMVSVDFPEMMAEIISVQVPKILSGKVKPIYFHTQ

T2: androgen receptor (AR), full length (human, UniProt P10275 1-920)
T2 construct: also called AR-FL; pCMV-AR
T2 sequence: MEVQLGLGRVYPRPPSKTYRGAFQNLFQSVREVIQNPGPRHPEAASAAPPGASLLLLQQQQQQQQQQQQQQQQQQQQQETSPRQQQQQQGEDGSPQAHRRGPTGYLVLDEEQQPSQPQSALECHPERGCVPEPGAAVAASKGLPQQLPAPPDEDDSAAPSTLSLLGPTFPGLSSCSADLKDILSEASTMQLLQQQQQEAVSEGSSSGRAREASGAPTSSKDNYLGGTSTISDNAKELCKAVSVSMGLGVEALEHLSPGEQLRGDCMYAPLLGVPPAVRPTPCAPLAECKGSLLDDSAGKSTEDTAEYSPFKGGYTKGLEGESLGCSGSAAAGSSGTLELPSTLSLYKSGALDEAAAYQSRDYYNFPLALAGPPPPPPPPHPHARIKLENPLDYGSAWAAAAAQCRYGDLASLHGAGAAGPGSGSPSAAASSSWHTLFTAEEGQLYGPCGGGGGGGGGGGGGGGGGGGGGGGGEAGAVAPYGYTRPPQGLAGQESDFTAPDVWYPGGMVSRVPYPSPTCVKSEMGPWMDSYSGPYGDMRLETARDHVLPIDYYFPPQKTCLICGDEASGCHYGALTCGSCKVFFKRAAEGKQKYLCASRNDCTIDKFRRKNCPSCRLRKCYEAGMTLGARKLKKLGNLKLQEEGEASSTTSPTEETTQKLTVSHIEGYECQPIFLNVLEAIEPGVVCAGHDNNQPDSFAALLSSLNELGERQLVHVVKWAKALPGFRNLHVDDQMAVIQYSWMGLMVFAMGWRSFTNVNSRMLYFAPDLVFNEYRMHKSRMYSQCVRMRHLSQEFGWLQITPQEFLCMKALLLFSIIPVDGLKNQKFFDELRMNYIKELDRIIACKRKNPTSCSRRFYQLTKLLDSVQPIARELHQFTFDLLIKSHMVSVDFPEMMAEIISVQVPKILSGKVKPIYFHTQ

T3: AR DBD-LBD (human, UniProt P10275 557-920)
T3 construct: also called GAL4-DBD-AR-DBD-LBD; GAL4-AR-DBD-LBD
T3 sequence: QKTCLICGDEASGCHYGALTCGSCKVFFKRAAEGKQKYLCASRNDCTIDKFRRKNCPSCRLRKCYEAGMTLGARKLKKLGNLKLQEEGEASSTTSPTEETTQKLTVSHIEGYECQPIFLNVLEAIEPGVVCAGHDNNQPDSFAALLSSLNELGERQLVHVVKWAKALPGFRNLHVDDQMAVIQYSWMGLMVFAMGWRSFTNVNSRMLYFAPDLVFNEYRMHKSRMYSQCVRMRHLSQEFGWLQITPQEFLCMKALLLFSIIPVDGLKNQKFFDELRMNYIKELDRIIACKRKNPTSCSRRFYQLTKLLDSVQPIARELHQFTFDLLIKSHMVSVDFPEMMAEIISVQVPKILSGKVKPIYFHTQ

B1: AR N-terminus, full length ARN (ARN1-556) (receptor)
chain: MEVQLGLGRVYPRPPSKTYRGAFQNLFQSVREVIQNPGPRHPEAASAAPPGASLLLLQQQQQQQQQQQQQQQQQQQQQETSPRQQQQQQGEDGSPQAHRRGPTGYLVLDEEQQPSQPQSALECHPERGCVPEPGAAVAASKGLPQQLPAPPDEDDSAAPSTLSLLGPTFPGLSSCSADLKDILSEASTMQLLQQQQQEAVSEGSSSGRAREASGAPTSSKDNYLGGTSTISDNAKELCKAVSVSMGLGVEALEHLSPGEQLRGDCMYAPLLGVPPAVRPTPCAPLAECKGSLLDDSAGKSTEDTAEYSPFKGGYTKGLEGESLGCSGSAAAGSSGTLELPSTLSLYKSGALDEAAAYQSRDYYNFPLALAGPPPPPPPPHPHARIKLENPLDYGSAWAAAAAQCRYGDLASLHGAGAAGPGSGSPSAAASSSWHTLFTAEEGQLYGPCGGGGGGGGGGGGGGGGGGGGGGGGEAGAVAPYGYTRPPQGLAGQESDFTAPDVWYPGGMVSRVPYPSPTCVKSEMGPWMDSYSGPYGDMRLETARDHVLPIDYYFPPQ
B2: ARA67 8-140 (other)
chain: WIPETLYNTAISAVVDNYIRSRRDIRSLPENIQFDVYYKLYQQGRLCQLGSEFCELEVFAKVLRALDKRHLLHHCFQALMDHGVKVASVLAYSFSRRCSYIAESDAAVKEKAIQVGFVLGGFLSDAGWYSDAE
notes: GST fusion on beads
B3: C-terminus of hRad9 (aa 269-391) (other)
chain: DSHSQDLGSPERHQPVPQLQAHSTPHPDDFANDDIDSYMIAMETTIGNEGSRVLPSISLSPGPQPPKSPGPHSEEEDEAEPSTVPGTPPPKKFRSLFFGSILAPVRSPQGPSPVLAEDSEGEG
notes: GAL4 DBD fusion (pM) in the two-hybrid assay; Flag-tagged (pCDNA3-Flag) in the AR N/C assay; also called C-hRad9; hRad9 C-terminus
B4: PCNA-like domain of hRad9 (N-hRad9, aa 1-270) (other)
chain: MKCLVTGGNVKVLGKAVHSLSRIGDELYLEPLEDGLSLRTVNSSRSAYACFLFAPLFFQQYQAATPGQDLLRCKILMKSFLSVFRSLAMLEKTVEKCCISLNGRSSRLVVQLHCKFGVRKTHNLSFQDCESLQAVFDPASCPHMLRAPARVLGEAVLPFSPALAEVTLGIGRGRRVILRSYHEEEADSTAKAMVTEMCLGEEDFQQLQAQEGVAITFCLKEFRGLLSFAESANLNLSIHFDAPGRPAIFTIKDSLLDGHFVLATLSDTDS
notes: GAL4 DBD fusion (pM) in the two-hybrid assay; Flag-tagged (pCDNA3-Flag) in the AR N/C assay; also called N-terminus of hRad9
B5: ARA67 281-550 (other)
chain: GSKHPKYSDTLLDYGFYLLNVDNICQSVAIYQAALDIRQSVFGGKNIHVATAHEDLAYSSYVHQYSSGKFDNALFHAERAIGIITHILPEDHLLLASSKRVKALILEEIAIDCHNKETEQRLLQEAHDLHLSSLQLAKKAFGEFNVQTAKHYGNLGRLYQSMRKFKEAEEMHIKAIQIKEQLLGQEDYEVALSVGHLASLYNYDMNQYENAEKLYLRSIAIGKKLFGEGYSGLEYDYRGLIKLYNSIGNYEKVFEYHNVLSNWNRLRDRQ
notes: GST fusion on beads
B6: ARA67/PAT1, full length (585 amino acids) (other)
chain: MAAVELEWIPETLYNTAISAVVDNYIRSRRDIRSLPENIQFDVYYKLYQQGRLCQLGSEFCELEVFAKVLRALDKRHLLHHCFQALMDHGVKVASVLAYSFSRRCSYIAESDAAVKEKAIQVGFVLGGFLSDAGWYSDAEKVFLSCLQLCTLHDEMLHWFRAVECCVRLLHVRNGNCKYHLGEETFKLAQTYMDKLSKHGQQANKAALYGELCALLFAKSHYDEAYKWCIEAMKEITAGLPVKVVVDVLRQASKACVVKREFKKAEQLIKHAVYLARDHFGSKHPKYSDTLLDYGFYLLNVDNICQSVAIYQAALDIRQSVFGGKNIHVATAHEDLAYSSYVHQYSSGKFDNALFHAERAIGIITHILPEDHLLLASSKRVKALILEEIAIDCHNKETEQRLLQEAHDLHLSSLQLAKKAFGEFNVQTAKHYGNLGRLYQSMRKFKEAEEMHIKAIQIKEQLLGQEDYEVALSVGHLASLYNYDMNQYENAEKLYLRSIAIGKKLFGEGYSGLEYDYRGLIKLYNSIGNYEKVFEYHNVLSNWNRLRDRQYSVTDALEDVSTSPQSTEEVVQSFLISQNVEGPSC
notes: Used as GST-ARA67 on beads, as [35S]methionine-labeled ARA67, as GAL4 DBD fusion (pM-ARA67) and as HA-ARA67 (pKH3) in COS-1 cells; also called ARA671-585; GST-ARA67
B7: GAL4 activation domain alone (other, UniProt P04386 768-881, looked up)
chain: ANFNQSGNIADSSLSFTFTNSSNGPNLITTQTNSQALSQPIASSNVHDNFMNNEITASKIDDGNNSKPLSPGWTDQTAYNAFGITTGMFNTTTMDDVYNYLFDDEDTPPNPKKE
notes: Negative control; also called GAL4-AD

In experiment [1] the target is B6. Description: mammalian two-hybrid in H1299 cells, pM-ARA67 + pVP16-ARN, pG5-Luc.
Experiment [2] concerns the target B1. Description: GST pull-down: GST-ARA67 fragments with 35S-labeled ARN.
Experiment [3] has as its target T1, VP16-AR containing the residues 37 to …. Description: mammalian two-hybrid in PC-3 cells, GAL4 DBD-hRad9 constructs + VP16-AR, 10 nM DHT.
Experiment [4] shares this target. Kind of experiment: mammalian two-hybrid in PC-3 cells, GAL4 DBD-N-hRad9 + VP16-AR, 10 nM DHT.
Experiment [5] has as its target T2, androgen receptor (AR), full length. Kind of experiment: GST pull-down: GST-ARA67 with 35S-labeled AR, with or without 10 uM DHT.
Procedure: Pulled-down proteins were separated on SDS-PAGE and visualized by autoradiography. […] After transfection cells were treated with or without 10 nM DHT for 24 h before harvesting. 500 μg total cell lysate proteins from each samples were immunoprecipitated with anti-AR antibody for Western blot analysis with anti-AR and anti-HA antibody (Roche).
The immunoprecipitates were analyzed by Western blotting.
The target in the next experiment is T3, AR DBD-LBD. Description: yeast two-hybrid, liquid β-gal assay, bait GAL4 DBD-AR-DBD-LBD.

Procedure for AR DBD-LBD: Liquid β-gal assay was performed as described previously.
In order to screen proteins with ligand-dependent interaction with AR, the human AR DBD-LBD was fused with the DBD of GAL4 functioned as bait in yeast two-hybrid screening (FIG. 23A). A pretransformed normal human ovary cDNA library was screened in the presence of 10 nM DHT.

Consider B1, for which the binding result in experiment [1] is listed as “binds”.
Consider B2, for which the binding result in experiment [2] is “binds”.
On to B3, for which the binding result in experiment [3] was “binds”.
As for B4, in experiment [4], the binding result is “no binding”.
On to B5, for which the binding result in experiment [2] is on record as “binds”.
Turning to B6, in experiment [5], the binding result was “binds”.
For B7, in the experiment with AR DBD-LBD, the binding result was “no binding”.

For the origin of these results see patent US20080050387A1 (published 2008).
